Values quoted from earlier work, collected in article PMC2792886.
pKd: −log10 of the molar value.

Target: holoBirA (Escherichia coli) (UniProt P06709)

## holoBirA (from UniProt P06709)
  pKd: 5.00
